Results as given in US20180155451A1 (published 2018).

T1: FcγRIIa R (human, UniProt P12318 34-217)
T1 construct: extracellular domain; also called FcgRIIa R; FcγRIIa type R
T1 sequence (looked up): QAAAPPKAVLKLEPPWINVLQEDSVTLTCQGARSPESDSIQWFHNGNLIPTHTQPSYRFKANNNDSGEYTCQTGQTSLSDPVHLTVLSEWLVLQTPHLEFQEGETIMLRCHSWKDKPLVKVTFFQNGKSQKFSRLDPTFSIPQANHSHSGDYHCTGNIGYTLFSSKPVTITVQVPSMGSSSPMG

T2: FcγRIIb (human, UniProt P31994 43-217)
T2 construct: extracellular domain; also called FcgRIIb
T2 sequence (looked up): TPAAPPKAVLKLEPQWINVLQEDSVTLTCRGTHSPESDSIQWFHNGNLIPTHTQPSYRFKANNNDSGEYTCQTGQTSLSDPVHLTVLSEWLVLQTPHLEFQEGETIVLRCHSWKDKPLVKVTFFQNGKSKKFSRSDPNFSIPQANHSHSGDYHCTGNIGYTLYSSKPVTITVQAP


How the values were obtained:
FcγRIIa R [1] = biological target: T1, FcγRIIa R; test: He/Con_2aR divided by He/Con_2b (FcγRIIa R over FcγRIIb); SPR (Biacore)
FcγRIIa R [2] = biological target: T1, FcγRIIa R; test: SPR (Biacore), captured antibody, FcγR analyte; binding relative to GpH7-A5/GpH7-B3/GpL16-k0 = 100
FcγRIIb = biological target: T2, FcγRIIb; test: as above

IIaR/IIb (He_2aR/2b) (FcγRIIa R [1]) | He/Con_2aR (IIaR binding) (FcγRIIa R [2]) | He/Con_2b (IIb binding) (FcγRIIb) | Binder
1.33 ratio | 92.1 control=100 | 69.1 control=100 | GpH7-A5/GpH7-B3 variant N325_19Q/GpL16-k0 (antibody, human IgG1, kappa, He Ab; IgG1; mutation in one H chain only) heavy 1: not shown heavy 2: not shown light: DIVMTQSPLSLPVTPGEPASISCQASESLVHSNRNTYLHWYLQKPGQSPQLLIYKVSNRFSGVPDRFSGSGSGTDFTLKISRVEAEDVGVYYCSQNTHVPPTFGQGTKVEIERTVAAPSVFIFPPSDEQLKSGTASVVCLLNNFYPREAKVQWKVDNALQSGNSQESVTEQDSKDSTYSLSSTLTLSKADYEKHKVYACEVTHQGLSSPVTKSFNRGEC
1.39 ratio | 44.7 control=100 | 32.2 control=100 | GpH7-A5/GpH7-B3 variant P329_04F/GpL16-k0 (antibody, human IgG1, kappa, He Ab; IgG1; mutation in one H chain only) heavy 1: not shown heavy 2: not shown light: DIVMTQSPLSLPVTPGEPASISCQASESLVHSNRNTYLHWYLQKPGQSPQLLIYKVSNRFSGVPDRFSGSGSGTDFTLKISRVEAEDVGVYYCSQNTHVPPTFGQGTKVEIERTVAAPSVFIFPPSDEQLKSGTASVVCLLNNFYPREAKVQWKVDNALQSGNSQESVTEQDSKDSTYSLSSTLTLSKADYEKHKVYACEVTHQGLSSPVTKSFNRGEC
1.47 ratio | 42.7 control=100 | 29.1 control=100 | GpH7-A5/GpH7-B3 variant P329_06M/GpL16-k0 (antibody, human IgG1, kappa, He Ab; IgG1; mutation in one H chain only) heavy 1: not shown heavy 2: not shown light: DIVMTQSPLSLPVTPGEPASISCQASESLVHSNRNTYLHWYLQKPGQSPQLLIYKVSNRFSGVPDRFSGSGSGTDFTLKISRVEAEDVGVYYCSQNTHVPPTFGQGTKVEIERTVAAPSVFIFPPSDEQLKSGTASVVCLLNNFYPREAKVQWKVDNALQSGNSQESVTEQDSKDSTYSLSSTLTLSKADYEKHKVYACEVTHQGLSSPVTKSFNRGEC
1.45 ratio | 58.9 control=100 | 40.5 control=100 | GpH7-A5/GpH7-B3 variant P329_02A/GpL16-k0 (antibody, human IgG1, kappa, He Ab; IgG1; mutation in one H chain only) heavy 1: not shown heavy 2: not shown light: DIVMTQSPLSLPVTPGEPASISCQASESLVHSNRNTYLHWYLQKPGQSPQLLIYKVSNRFSGVPDRFSGSGSGTDFTLKISRVEAEDVGVYYCSQNTHVPPTFGQGTKVEIERTVAAPSVFIFPPSDEQLKSGTASVVCLLNNFYPREAKVQWKVDNALQSGNSQESVTEQDSKDSTYSLSSTLTLSKADYEKHKVYACEVTHQGLSSPVTKSFNRGEC
1.47 ratio | 42.8 control=100 | 29.1 control=100 | GpH7-A5/GpH7-B3 variant P329_08L/GpL16-k0 (antibody, human IgG1, kappa, He Ab; IgG1; mutation in one H chain only) heavy 1: not shown heavy 2: not shown light: DIVMTQSPLSLPVTPGEPASISCQASESLVHSNRNTYLHWYLQKPGQSPQLLIYKVSNRFSGVPDRFSGSGSGTDFTLKISRVEAEDVGVYYCSQNTHVPPTFGQGTKVEIERTVAAPSVFIFPPSDEQLKSGTASVVCLLNNFYPREAKVQWKVDNALQSGNSQESVTEQDSKDSTYSLSSTLTLSKADYEKHKVYACEVTHQGLSSPVTKSFNRGEC
1.66 ratio | 29.3 control=100 | 17.6 control=100 | GpH7-A5/GpH7-B3 variant P329_12R/GpL16-k0 (antibody, human IgG1, kappa, He Ab; IgG1; mutation in one H chain only; also called GpH7-A5/GpH7-B12/GpL16-k0) heavy 1: not shown heavy 2: not shown light: DIVMTQSPLSLPVTPGEPASISCQASESLVHSNRNTYLHWYLQKPGQSPQLLIYKVSNRFSGVPDRFSGSGSGTDFTLKISRVEAEDVGVYYCSQNTHVPPTFGQGTKVEIERTVAAPSVFIFPPSDEQLKSGTASVVCLLNNFYPREAKVQWKVDNALQSGNSQESVTEQDSKDSTYSLSSTLTLSKADYEKHKVYACEVTHQGLSSPVTKSFNRGEC
1.49 ratio | 67.9 control=100 | 45.7 control=100 | GpH7-A5/GpH7-B3 variant P329_15Y/GpL16-k0 (antibody, human IgG1, kappa, He Ab; IgG1; mutation in one H chain only) heavy 1: not shown heavy 2: not shown light: DIVMTQSPLSLPVTPGEPASISCQASESLVHSNRNTYLHWYLQKPGQSPQLLIYKVSNRFSGVPDRFSGSGSGTDFTLKISRVEAEDVGVYYCSQNTHVPPTFGQGTKVEIERTVAAPSVFIFPPSDEQLKSGTASVVCLLNNFYPREAKVQWKVDNALQSGNSQESVTEQDSKDSTYSLSSTLTLSKADYEKHKVYACEVTHQGLSSPVTKSFNRGEC
1.5 ratio | 61.5 control=100 | 41 control=100 | GpH7-A5/GpH7-B3 variant P329_13S/GpL16-k0 (antibody, human IgG1, kappa, He Ab; IgG1; mutation in one H chain only) heavy 1: not shown heavy 2: not shown light: DIVMTQSPLSLPVTPGEPASISCQASESLVHSNRNTYLHWYLQKPGQSPQLLIYKVSNRFSGVPDRFSGSGSGTDFTLKISRVEAEDVGVYYCSQNTHVPPTFGQGTKVEIERTVAAPSVFIFPPSDEQLKSGTASVVCLLNNFYPREAKVQWKVDNALQSGNSQESVTEQDSKDSTYSLSSTLTLSKADYEKHKVYACEVTHQGLSSPVTKSFNRGEC

More lines, now with the values behind:

Binder | IIaR/IIb (He_2aR/2b) (FcγRIIa R [1]) | He/Con_2aR (IIaR binding) (FcγRIIa R [2]) | He/Con_2b (IIb binding) (FcγRIIb)
GpH7-A5/GpH7-B3 variant P329_10E/GpL16-k0 (antibody, human IgG1, kappa, He Ab; IgG1; mutation in one H chain only; also called GpH7-A5/GpH7-B15/GpL16-k0) heavy 1: not shown heavy 2: not shown light: DIVMTQSPLSLPVTPGEPASISCQASESLVHSNRNTYLHWYLQKPGQSPQLLIYKVSNRFSGVPDRFSGSGSGTDFTLKISRVEAEDVGVYYCSQNTHVPPTFGQGTKVEIERTVAAPSVFIFPPSDEQLKSGTASVVCLLNNFYPREAKVQWKVDNALQSGNSQESVTEQDSKDSTYSLSSTLTLSKADYEKHKVYACEVTHQGLSSPVTKSFNRGEC | 1.23 ratio | 64.8 control=100 | 52.7 control=100
GpH7-A5/GpH7-B3 variant P329_11K/GpL16-k0 (antibody, human IgG1, kappa, He Ab; IgG1; mutation in one H chain only; also called GpH7-A5/GpH7-B13/GpL16-k0) heavy 1: not shown heavy 2: not shown light: DIVMTQSPLSLPVTPGEPASISCQASESLVHSNRNTYLHWYLQKPGQSPQLLIYKVSNRFSGVPDRFSGSGSGTDFTLKISRVEAEDVGVYYCSQNTHVPPTFGQGTKVEIERTVAAPSVFIFPPSDEQLKSGTASVVCLLNNFYPREAKVQWKVDNALQSGNSQESVTEQDSKDSTYSLSSTLTLSKADYEKHKVYACEVTHQGLSSPVTKSFNRGEC | 1.79 ratio | 30.2 control=100 | 16.9 control=100
GpH7-A5/GpH7-B3 variant P329_03V/GpL16-k0 (antibody, human IgG1, kappa, He Ab; IgG1; mutation in one H chain only) heavy 1: not shown heavy 2: not shown light: DIVMTQSPLSLPVTPGEPASISCQASESLVHSNRNTYLHWYLQKPGQSPQLLIYKVSNRFSGVPDRFSGSGSGTDFTLKISRVEAEDVGVYYCSQNTHVPPTFGQGTKVEIERTVAAPSVFIFPPSDEQLKSGTASVVCLLNNFYPREAKVQWKVDNALQSGNSQESVTEQDSKDSTYSLSSTLTLSKADYEKHKVYACEVTHQGLSSPVTKSFNRGEC | 1.4 ratio | 53.8 control=100 | 38.5 control=100
GpH7-A5/GpH7-B3 variant P329_09D/GpL16-k0 (antibody, human IgG1, kappa, He Ab; IgG1; mutation in one H chain only; also called GpH7-A5/GpH7-B14/GpL16-k0) heavy 1: not shown heavy 2: not shown light: DIVMTQSPLSLPVTPGEPASISCQASESLVHSNRNTYLHWYLQKPGQSPQLLIYKVSNRFSGVPDRFSGSGSGTDFTLKISRVEAEDVGVYYCSQNTHVPPTFGQGTKVEIERTVAAPSVFIFPPSDEQLKSGTASVVCLLNNFYPREAKVQWKVDNALQSGNSQESVTEQDSKDSTYSLSSTLTLSKADYEKHKVYACEVTHQGLSSPVTKSFNRGEC | 1.27 ratio | 67.8 control=100 | 53.5 control=100
GpH7-A5/GpH7-B3 variant P329_07I/GpL16-k0 (antibody, human IgG1, kappa, He Ab; IgG1; mutation in one H chain only) heavy 1: not shown heavy 2: not shown light: DIVMTQSPLSLPVTPGEPASISCQASESLVHSNRNTYLHWYLQKPGQSPQLLIYKVSNRFSGVPDRFSGSGSGTDFTLKISRVEAEDVGVYYCSQNTHVPPTFGQGTKVEIERTVAAPSVFIFPPSDEQLKSGTASVVCLLNNFYPREAKVQWKVDNALQSGNSQESVTEQDSKDSTYSLSSTLTLSKADYEKHKVYACEVTHQGLSSPVTKSFNRGEC | 1.44 ratio | 49.6 control=100 | 34.6 control=100
GpH7-A5/GpH7-B3 variant P329_14T/GpL16-k0 (antibody, human IgG1, kappa, He Ab; IgG1; mutation in one H chain only) heavy 1: not shown heavy 2: not shown light: DIVMTQSPLSLPVTPGEPASISCQASESLVHSNRNTYLHWYLQKPGQSPQLLIYKVSNRFSGVPDRFSGSGSGTDFTLKISRVEAEDVGVYYCSQNTHVPPTFGQGTKVEIERTVAAPSVFIFPPSDEQLKSGTASVVCLLNNFYPREAKVQWKVDNALQSGNSQESVTEQDSKDSTYSLSSTLTLSKADYEKHKVYACEVTHQGLSSPVTKSFNRGEC | 1.51 ratio | 57.3 control=100 | 37.9 control=100
